Read-outs that look alike come from different tables or passages of the source. Ends that are not written are not given here. rhodamine = not defined here
Assays:
[1] = biological target: T1, GST-SH3 domain (derived from BIN1) (human); experiment: ITC
T1 sequence (O00499 whole entry, looked up): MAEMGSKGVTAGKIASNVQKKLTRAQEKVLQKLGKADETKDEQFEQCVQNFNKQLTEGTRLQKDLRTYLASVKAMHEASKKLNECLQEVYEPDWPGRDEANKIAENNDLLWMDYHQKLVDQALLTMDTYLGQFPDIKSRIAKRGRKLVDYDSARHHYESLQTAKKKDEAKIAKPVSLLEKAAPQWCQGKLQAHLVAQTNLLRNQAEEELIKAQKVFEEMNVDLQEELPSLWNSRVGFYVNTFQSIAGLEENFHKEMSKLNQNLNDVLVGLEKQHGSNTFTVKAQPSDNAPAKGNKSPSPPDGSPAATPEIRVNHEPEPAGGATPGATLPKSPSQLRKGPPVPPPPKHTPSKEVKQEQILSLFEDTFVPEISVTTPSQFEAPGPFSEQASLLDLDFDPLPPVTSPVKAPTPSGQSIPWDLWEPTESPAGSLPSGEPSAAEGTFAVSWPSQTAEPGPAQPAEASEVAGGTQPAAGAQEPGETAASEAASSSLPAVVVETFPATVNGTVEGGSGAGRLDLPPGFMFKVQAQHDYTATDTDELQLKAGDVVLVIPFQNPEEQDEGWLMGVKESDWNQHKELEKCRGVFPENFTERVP

[2] = biological target: T1, GST-SH3 domain (derived from BIN1) (human); experiment: ITC; remark: listed apart in the source
[3] = biological target: T1, GST-SH3 domain (derived from BIN1) (human); experiment: ITC; remark: listed apart in the source
[4] = biological target: T1, GST-SH3 domain (derived from BIN1) (human); experiment: ITC; remark: listed apart in the source
[5] = biological target: T2, Alexa488 labeled BIN1-FL (human, UniProt O00499-8 1-454, Alexa 488 C5-maleimide on endogenous cysteine residues); experiment: recruitment of fluorescent peptide to protein-coated giant vesicles
T2 sequence (looked up): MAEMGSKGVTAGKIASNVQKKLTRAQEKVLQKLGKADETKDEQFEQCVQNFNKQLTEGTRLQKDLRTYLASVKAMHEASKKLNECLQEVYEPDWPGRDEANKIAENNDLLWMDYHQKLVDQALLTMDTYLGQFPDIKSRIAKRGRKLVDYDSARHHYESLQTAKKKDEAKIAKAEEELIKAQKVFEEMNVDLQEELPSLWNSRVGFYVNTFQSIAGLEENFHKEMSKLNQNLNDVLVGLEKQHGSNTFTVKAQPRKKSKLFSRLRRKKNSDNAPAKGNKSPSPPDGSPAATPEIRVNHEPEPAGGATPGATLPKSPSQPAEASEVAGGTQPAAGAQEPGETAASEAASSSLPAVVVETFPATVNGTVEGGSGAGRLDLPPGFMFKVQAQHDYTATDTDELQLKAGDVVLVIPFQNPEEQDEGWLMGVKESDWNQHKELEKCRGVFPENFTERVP

Binder	stoichiometry N [1]	Kd [2]	Kd [3]	stoichiometry N [3]	Kd [4]	binding result [5]
RKKSKLFSRLRRKKN [exon10 peptide]	1	11.3 µM	3.9 µM	1	–	–
PPQIPSRPVRIPPGI [dynamin 2-derived proline-rich domain peptide]	–	–	13.7 µM	–	68.3 µM	–
rhodamine-PPQIPSRPVRIPPGI (reading uncertain) [rhodamine-labeled PRD peptide]	–	–	–	–	–	binds
